{
  "source": "patent US7271143B1",
  "about": "“Peptides for regulation of urokinase (uPA) and tissue type (tPA) plasminogen activator and method of optimizing therapeutic efficacy” (Thrombotech Ltd., priority 2001, dated 2007)",
  "key": {"[1]": {"settings": "in vitro, cited from earlier work"}, "[2]": {"settings": "cited from earlier work"}, "[3]": {"target": "plasminogen activator inhibitor-1 (PAI-1) (Homo sapiens, UniProt P05121)", "sequence (P05121 24-402, species assumed)": "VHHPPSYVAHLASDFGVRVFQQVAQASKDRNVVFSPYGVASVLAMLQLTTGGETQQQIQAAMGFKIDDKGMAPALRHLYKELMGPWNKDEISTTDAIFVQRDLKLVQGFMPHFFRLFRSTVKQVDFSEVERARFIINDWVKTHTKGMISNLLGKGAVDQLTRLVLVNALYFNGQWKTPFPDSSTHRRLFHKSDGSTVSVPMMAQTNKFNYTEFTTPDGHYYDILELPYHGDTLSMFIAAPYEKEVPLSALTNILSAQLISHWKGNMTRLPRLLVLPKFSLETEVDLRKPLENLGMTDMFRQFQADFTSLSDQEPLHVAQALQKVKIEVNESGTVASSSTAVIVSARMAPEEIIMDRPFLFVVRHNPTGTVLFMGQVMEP", "settings": "higher than tPA; cited from earlier work"}, "[4]": {"settings": "rabbits, arterial venous shunt; cited from earlier work"}, "isolated rat aorta rings": {"system": "isolated rat aorta rings", "experiment": "PE-induced contraction of isolated rat aorta rings", "assay_type": "cell-based", "experimental": "FIG. 1A is a diagram describing the results of experiments on the effect of tPA on PE-induced contraction of isolated rat aorta rings. Contraction of aortic rings was induced by increasing the concentrations of phenylephrine (PE), in the absence of tPA (full triangles) or in the presence of 1 nM (filled squares) or 20 nM tPA (empty squares).\nFIG. 1B describes the results of experiments in which the contraction of aortic rings was induced in the absence of TNK-tPA (filled triangles), in the presence of 1 nM tPA (filled squares) or 20 nM tPA (empty squares).\nFIG. 4 is a graph describing the effect of tPA on phenylepbrine-induced contraction of isolated rat aorta rings in vitro. The contraction of the aorta rings was induced by varying concentrations of phenylephrine in the absence of tPA (filled triangles), in the presence of 1 nM of TA (filled squares) or in the presence of 10 nM tPA (empty squares). The experiments were performed according to procedures described earlier by Haj-Yehia A et al., FASEB J, 2000, 14:1411–1422.\nThe effect of TNK-tPA on PE-induced contraction was compared with the effect of tPA, in the isolated aorta rings. […]"}, "fibrin": {"target": "T1, fibrin (Homo sapiens, UniProt P02671+P02675+P02679)", "T1 sequence (P02671 20-644 isoform P02671-2 limits assumed)": "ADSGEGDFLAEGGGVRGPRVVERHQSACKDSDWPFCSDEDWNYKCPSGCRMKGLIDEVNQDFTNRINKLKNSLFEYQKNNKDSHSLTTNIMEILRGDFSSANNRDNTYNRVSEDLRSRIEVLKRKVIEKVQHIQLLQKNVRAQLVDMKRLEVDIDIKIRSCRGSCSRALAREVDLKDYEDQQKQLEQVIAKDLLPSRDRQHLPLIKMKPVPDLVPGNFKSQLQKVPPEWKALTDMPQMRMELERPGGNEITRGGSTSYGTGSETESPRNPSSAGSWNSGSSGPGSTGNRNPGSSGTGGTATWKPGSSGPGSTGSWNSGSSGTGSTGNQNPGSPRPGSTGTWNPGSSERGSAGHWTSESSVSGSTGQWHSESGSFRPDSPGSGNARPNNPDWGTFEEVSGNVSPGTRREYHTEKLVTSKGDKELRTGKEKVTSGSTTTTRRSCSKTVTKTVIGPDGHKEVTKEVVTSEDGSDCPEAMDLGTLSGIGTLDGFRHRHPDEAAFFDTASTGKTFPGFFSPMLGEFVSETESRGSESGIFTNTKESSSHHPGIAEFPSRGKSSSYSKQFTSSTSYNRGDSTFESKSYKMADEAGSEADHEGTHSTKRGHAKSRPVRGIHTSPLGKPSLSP", "T1 sequence (P02675 45-491 limits assumed)": "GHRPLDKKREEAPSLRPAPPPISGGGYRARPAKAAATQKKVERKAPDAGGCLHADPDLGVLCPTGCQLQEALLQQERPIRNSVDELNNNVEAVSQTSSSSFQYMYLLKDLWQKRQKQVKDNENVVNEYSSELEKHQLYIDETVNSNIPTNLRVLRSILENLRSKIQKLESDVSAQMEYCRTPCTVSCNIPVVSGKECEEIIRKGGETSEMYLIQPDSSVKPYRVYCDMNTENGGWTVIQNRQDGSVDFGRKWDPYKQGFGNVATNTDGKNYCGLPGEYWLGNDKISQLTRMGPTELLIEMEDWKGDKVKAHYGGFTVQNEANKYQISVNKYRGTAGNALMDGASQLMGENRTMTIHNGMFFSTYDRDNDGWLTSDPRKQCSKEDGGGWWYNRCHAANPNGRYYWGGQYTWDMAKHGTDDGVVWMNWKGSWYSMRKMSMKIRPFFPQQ", "T1 sequence (P02679 27-437 isoform P02679-2 limits assumed)": "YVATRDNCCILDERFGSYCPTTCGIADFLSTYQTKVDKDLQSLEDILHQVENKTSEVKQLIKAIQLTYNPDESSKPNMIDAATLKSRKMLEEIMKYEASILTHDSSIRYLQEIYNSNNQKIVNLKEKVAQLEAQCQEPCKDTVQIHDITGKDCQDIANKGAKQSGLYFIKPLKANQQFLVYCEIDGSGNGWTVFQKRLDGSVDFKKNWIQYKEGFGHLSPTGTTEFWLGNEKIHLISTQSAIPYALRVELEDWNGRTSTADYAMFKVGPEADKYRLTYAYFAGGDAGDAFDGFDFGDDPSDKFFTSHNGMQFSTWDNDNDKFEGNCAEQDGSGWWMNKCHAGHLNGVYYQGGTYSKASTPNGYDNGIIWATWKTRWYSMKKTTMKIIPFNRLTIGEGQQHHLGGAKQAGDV", "settings": "greater than tPA; cited from earlier work"}},
  "note": "Where two headings read alike, the source gives them in different places.",
  "data": [
    {"molecule": "TNK-tPA: bioengineered variant of tissue-type plasminogen activator with tetra-alanine substitution in the protease domain (protein) SYQVICRDEKTQMIYQQHQSWLRPVLRSNRVEYCWCNSGRAQCHSVPVKSCSEPRCFNGGTCQQALYFSDFVCQCPEGFAGKCCEIDTRATCYEDQGISYRGTWSTAESGAECTNWNSSALAQKPYSGRRPDAIRLGLGNHNYCRNPDRDSKPWCYVFKAGKYSSEFCSTPACSEGNSDCYFGNGSAYRGTHSLTESGASCLPWNSMILIGKVYTAQNPSAQALGLGKHNYCRNPDGDAKPWCHVLKNRRLTWEYCDVPSCSTCGLRQYSQPQFRIKGGLFADIASHPWQAAIFAAAAASPGERFLCGGILISSCWILSAAHCFQERFPPHHLTVILGRTYRVVPGEEEQKFEVEKYIVHKEFDDDTYDNDIALLQLKSDSSRCAQESSVVRTVCLPPADLQLPDWTECELSGYGKHEALSPFYSERLKEAHVRLYPSSRCTSQHLLNRTVTDNMLCAGDTRSGGPQANLHDACQGDSGGPLVCLNDGRMTLVGIISWGLGCGQKDVPGVYTKVTNYLDWIRDNMRP", "values": [
      {"measurement": "potency relative to tPA", "setting": "[1]; platelet-enriched clots", "value": 13, "unit": "fold"},
      {"measurement": "potency relative to tPA", "setting": "[1]; whole blood clots", "value": 8, "unit": "fold"},
      {"measurement": "efficacy compared with rtPA", "setting": "[2]; comparative clinical trials", "value": "equivalent efficacy"},
      {"measurement": "non-cerebral bleeding episodes", "setting": "[2]; in vivo", "value": 4.66, "unit": "%"},
      {"measurement": "rate of intracranial hemorrhage compared with rtPA", "setting": "[2]; in vivo", "value": "similar"},
      {"measurement": "resistance to PAI-1 relative to tPA", "setting": "[3]", "value": 80, "unit": "fold"},
      {"measurement": "time required for 50% lysis relative to rtPA", "setting": "[4]", "value": "one third"},
      {"measurement": "effect on PE-induced vasoconstriction", "setting": "isolated rat aorta rings; 1 nM", "value": "stimulated"},
      {"measurement": "effect on PE-induced vasoconstriction", "setting": "isolated rat aorta rings; 20 nM", "value": "increased its stimulatory effect"},
      {"measurement": "relative fibrin specificity", "setting": "fibrin", "value": 14, "unit": "fold"}
    ]}
  ]
}
